Measurements from article doi:10.1101/383430 (bioRxiv, 2018).

Molecular target: T1, FAP45 (flagellar-associated protein 45) (Chlamydomonas (endogenous in axonemes), UniProt A8I9E8 1-501)
T1 sequence (looked up): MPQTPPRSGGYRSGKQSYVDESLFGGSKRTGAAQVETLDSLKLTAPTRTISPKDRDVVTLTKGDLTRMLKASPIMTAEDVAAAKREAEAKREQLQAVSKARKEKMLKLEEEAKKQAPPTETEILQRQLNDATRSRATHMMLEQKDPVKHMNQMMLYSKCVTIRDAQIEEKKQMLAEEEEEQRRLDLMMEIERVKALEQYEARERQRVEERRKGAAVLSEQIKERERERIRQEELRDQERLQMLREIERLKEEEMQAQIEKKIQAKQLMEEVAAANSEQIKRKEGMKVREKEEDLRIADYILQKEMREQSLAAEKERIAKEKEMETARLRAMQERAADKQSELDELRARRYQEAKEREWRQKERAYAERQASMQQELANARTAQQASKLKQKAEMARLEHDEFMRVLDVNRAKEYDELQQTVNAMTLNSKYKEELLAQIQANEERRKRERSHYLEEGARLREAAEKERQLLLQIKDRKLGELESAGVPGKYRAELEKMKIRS
Assay: cross-linking

B1: FAP52 (flagellar-associated protein 52) (natural protein, Chlamydomonas (endogenous in axonemes), UniProt A8ILK1 1-615, looked up)
chain: MAEPLVLNSVIGFGGAIENGLIAHPDGRTIIYPLGSTIVLRDRADPRSQEFLQGHSDKVSCLALSRSGRYLASGQITYMGFTADIIIWDLESKQLIHRMALHKVKVQALDFSCDERFLASLGGQDDNALVLWDVASGNAICGSPCNTNFTNCVKFFNNSPDKLITAGNFNMNVWTYDAGNNKLRPTDATLGTLKRVFKSVVVDANDEYAYCGTTTGDVLQIALERVLFKNTGPAKGNVQMGVTATCEVPTGDILVGGGDGSLQLLRKMPALAGTKVEGAITSIALADMNARGFTFFVGTAMCNIYKPATSRLKEELVQTAHNDKINGMAFPNEYSEVFATCGTGFIRLWHLTTCRELLRIAVPNLECFCIAFTTDGSAILSGWSDGKIRAFGPQSGKIIFTINDAHQKAVTAIASTADSSRILSGGEEGMVRVWRIGRTSQTLEASMKDHKGPVNCIRIKGSGDECVSASSDGSCILWDLHTFKRRTSLFANTFFKSVVYHPDESQLVTAGTDRKVTYWDAYDGNAIRIIDGSDLDEVNALAVDRDGEALVSGGGDKLVKLWGYDEGHCYFVGVAHSGAITAVGVTPDKQRIVSVGTEGGIFIWDYQRPQTLADI
  stoichiometry N: ~1
